In patent publication US20030182672A1 one finds Geometric mean Fluorescence, Mean Fluorescence and Median Fluorescence data, which are given here for 2 substances.

For test [1], the target named is HER-2 protein (also designated neu and erbB-2), endogenous in human MDA-MB-468 cells (human) (UniProt P04626). Put plainly: FACS, fixed and permeabilized parental MDA-MB-468 cells, antibody at 1/100, Alexa Fluor 488 secondary. For orientation: A flow cytometer gives signals particle by particle.
The target is the same in test [2]. Put plainly: FACS, MDA-MB-468 cells, irrelevant IgG2b control at 1/100, Alexa Fluor 488 secondary; background.

Take “mouse Anti-erbB2 monoclonal antibody (Transduction Laboratories, Cat. No. E19420, an IgG2b isotype)”: in test [1], the Geometric mean Fluorescence was 1090, the Mean Fluorescence is 1220 and the Median Fluorescence came out at 1180.
In test [2], “irrelevant primary antibody MART-1, an IgG2b antibody (NeoMarkers)” came in with a Geometric mean Fluorescence of 122 and a Mean Fluorescence of 137.
